Results on four molecules are retold here after article doi:10.1101/2022.08.08.502946 (bioRxiv, 2022).

The target in data set [1] is NaKΔ18 S-ELM (Bacillus cereus) (UniProt Q81HW2). In words: crystal structure.
The data set “crystal structure” deals with the molecule itself. In words: crystal structure.

For “NaKΔ18 S-ELM (from UniProt Q81HW2 19-114) (domain or fragment)”, the stoichiometry N in data set [1] was 4.

B1: NaKΔ18 C-DI (domain or fragment, Bacillus cereus, UniProt Q81HW2 19-114, looked up)
chain: WKDKEFQVLFVLTILTLISGTIFYSTVEGLRPIDALYFSVVTLTTVGCDISPQTDFGKIFTILYIFIGIGLVFGFIHKLAVNVQLPSILSNRKKE
With B1, the “stoichiometry N” value in the data set “crystal structure” was 4.

B2: NaKΔ18 C-DI F92A (domain or fragment, Bacillus cereus, UniProt Q81HW2 19-114, looked up)
chain: WKDKEFQVLFVLTILTLISGTIFYSTVEGLRPIDALYFSVVTLTTVGCDISPQTDFGKIFTILYIFIGIGLVAGFIHKLAVNVQLPSILSNRKKE
In the case of B2, the “stoichiometry N” value in the data set “crystal structure” amounted to 4.

B3: NaKΔ18 S-DI (domain or fragment, Bacillus cereus, UniProt Q81HW2 19-114, looked up)
chain: WKDKEFQVLFVLTILTLISGTIFYSTVEGLRPIDALYFSVVTLTTVGSDISPQTDFGKIFTILYIFIGIGLVFGFIHKLAVNVQLPSILSNRKKE
For the molecule B3, in the data set “crystal structure”, the “stoichiometry N” value came to 4.
